Measured values published in publication PMC10667097, “Activity-based profiling of cullin–RING E3 networks by conformation-specific probes” (Nature Chemical Biology, 2023).

Legend:
[1] = target: T1, neddylated CUL3 (endogenous) (human (endogenous in K562, 293T), UniProt Q13618;Q15843, NEDD8-modified | linked to the cullin); experiment: co-IP; biotinylated Fab on streptavidin magnetic beads, K562 lysates (cells treated with DMSO, MLN4924 or CSN5i-3; N8-block), 45 min at 4 °C, immunoblotting; conditions: one partner purified
T1 construct: CUL3, human; NEDD8, human, the conjugated form; also called NEDD8-linked CUL3; source: endogenous, K562 lysate; endogenous, 293T lysate

[2] = target: T2, neddylated CUL2 (endogenous) (human (endogenous in 293T), UniProt Q13617;Q15843, NEDD8-modified | linked to the cullin); experiment: affinity purification with mass spectrometry; IPs with biotinylated N8C_Fab3b on streptavidin beads from lysates of human cells (293T, K562, panel of ten lines), N8-block; cells treated with DMSO, MLN4924, CSN5i-3, Indisulam, MZ1, ferric ammonium citrate or TNF (with MG132 and CB-5083 before stimuli); DIA MS; conditions: one partner purified
T2 construct: CUL2, human; NEDD8, human, the conjugated form; also called NEDD8-linked CUL2; source: endogenous, 293T lysate

[3] = target: T3, neddylated CUL1 C-terminal region bound to RBX1 (Homo sapiens, UniProt Q13616;P62877;Q15843, L421E | V451E | V452K | Y455K, NEDD8 linked to a specific site in the WHB subdomain | C-terminus linked to the cullin (isopeptide)); experiment: ELISA; proteins (2 µg/ml) coated on 384-well MaxiSorp plates overnight at 4 °C; Fab titrated (Fig. 1c at 50 nM Fab); detected with anti-M13-HRP (phage) or anti-Kappa-HRP (protein); EC50 by nonlinear regression; the results call the Fabs phage-displayed, the methods give EC50 for purified Fab proteins; conditions: both partners purified
T3 construct: CUL1, human, C-terminal region residues 411-776 with solubilizing substitutions; RBX1, human; NEDD8, human, the conjugated form; also called neddylated CUL1–RBX1; source: neddylated in vitro; not shown: MBP, N-terminal, cleaved; GST, N-terminal, cleaved; copies: + +

[4] = target: T4, purified recombinant CUL3 modified by NEDD8 (band on the immunoblot) (Homo sapiens, UniProt Q13618;Q15843, NEDD8 linked to a specific site in the WHB subdomain | C-terminus linked to the cullin (isopeptide)); experiment: far-Western, overlay or dot blot; 200 ng neddylated or unneddylated recombinant CUL1-5 after SDS-PAGE on PVDF; 2 µg/ml biotinylated Fab as primary binder, Streptavidin-HRP; conditions: both partners purified
T4 construct: CUL3, human; NEDD8, human, the conjugated form; Resolved by SDS-PAGE, so RBX1 is not in the band; also called neddylated CUL3–RBX1; source: recombinant, purified, neddylated in vitro; not shown: GST, N-terminal, cleaved
T4 sequence (Q13618 whole entry, chain 1 of 2): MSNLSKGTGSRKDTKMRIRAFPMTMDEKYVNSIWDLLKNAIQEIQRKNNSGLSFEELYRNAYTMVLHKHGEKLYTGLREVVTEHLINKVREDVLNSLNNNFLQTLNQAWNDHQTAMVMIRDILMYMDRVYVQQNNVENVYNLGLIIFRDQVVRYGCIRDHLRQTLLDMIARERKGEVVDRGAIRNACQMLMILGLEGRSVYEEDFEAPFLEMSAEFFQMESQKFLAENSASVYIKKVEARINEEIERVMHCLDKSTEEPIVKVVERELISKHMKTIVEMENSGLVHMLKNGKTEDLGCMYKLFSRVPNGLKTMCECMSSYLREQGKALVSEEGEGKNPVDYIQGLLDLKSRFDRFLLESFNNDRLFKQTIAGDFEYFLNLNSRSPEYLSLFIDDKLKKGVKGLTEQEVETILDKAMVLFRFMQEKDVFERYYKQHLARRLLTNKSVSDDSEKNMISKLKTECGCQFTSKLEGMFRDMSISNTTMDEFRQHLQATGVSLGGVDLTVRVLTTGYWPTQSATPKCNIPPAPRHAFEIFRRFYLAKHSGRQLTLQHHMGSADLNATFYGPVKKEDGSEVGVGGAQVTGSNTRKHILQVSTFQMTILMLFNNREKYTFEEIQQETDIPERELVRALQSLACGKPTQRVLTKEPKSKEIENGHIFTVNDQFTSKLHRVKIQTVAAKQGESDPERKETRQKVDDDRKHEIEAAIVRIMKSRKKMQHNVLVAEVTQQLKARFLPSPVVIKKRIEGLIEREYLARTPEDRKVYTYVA
T4 sequence (Q15843 1-76, chain 2 of 2): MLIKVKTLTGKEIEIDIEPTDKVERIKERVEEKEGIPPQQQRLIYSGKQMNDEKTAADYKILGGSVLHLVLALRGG

T1 sequence (Q13618 whole entry, chain 1 of 2): as the sequence (Q13618 whole entry, chain 1 of 2) above
T1 sequence (Q15843 1-76, chain 2 of 2): as the sequence (Q15843 1-76, chain 2 of 2) above
T2 sequence (Q13617 whole entry, chain 1 of 2): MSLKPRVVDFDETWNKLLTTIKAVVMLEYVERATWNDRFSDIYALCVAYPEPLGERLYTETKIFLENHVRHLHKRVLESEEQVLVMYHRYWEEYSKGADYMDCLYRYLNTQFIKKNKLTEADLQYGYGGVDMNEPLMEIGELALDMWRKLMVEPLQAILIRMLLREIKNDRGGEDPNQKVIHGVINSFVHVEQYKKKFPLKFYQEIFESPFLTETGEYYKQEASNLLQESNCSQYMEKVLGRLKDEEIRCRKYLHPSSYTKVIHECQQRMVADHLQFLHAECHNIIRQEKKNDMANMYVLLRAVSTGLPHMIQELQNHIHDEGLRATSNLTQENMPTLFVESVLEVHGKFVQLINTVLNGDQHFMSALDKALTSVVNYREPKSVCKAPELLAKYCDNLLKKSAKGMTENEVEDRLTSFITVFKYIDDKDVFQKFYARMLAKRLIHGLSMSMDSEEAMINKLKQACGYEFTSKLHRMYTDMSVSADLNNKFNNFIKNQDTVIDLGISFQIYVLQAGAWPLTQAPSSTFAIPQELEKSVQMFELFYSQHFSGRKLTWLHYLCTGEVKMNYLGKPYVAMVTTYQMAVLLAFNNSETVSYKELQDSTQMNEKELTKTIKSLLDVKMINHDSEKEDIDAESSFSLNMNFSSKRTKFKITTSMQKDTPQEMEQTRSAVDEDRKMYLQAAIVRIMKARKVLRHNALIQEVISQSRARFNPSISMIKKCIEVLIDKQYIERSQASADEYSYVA
T2 sequence (Q15843 1-76, chain 2 of 2): as the sequence (Q15843 1-76, chain 2 of 2) above
T3 sequence (Q13616 411-776 L421E/V451E/V452K/Y455K, chain 1 of 3): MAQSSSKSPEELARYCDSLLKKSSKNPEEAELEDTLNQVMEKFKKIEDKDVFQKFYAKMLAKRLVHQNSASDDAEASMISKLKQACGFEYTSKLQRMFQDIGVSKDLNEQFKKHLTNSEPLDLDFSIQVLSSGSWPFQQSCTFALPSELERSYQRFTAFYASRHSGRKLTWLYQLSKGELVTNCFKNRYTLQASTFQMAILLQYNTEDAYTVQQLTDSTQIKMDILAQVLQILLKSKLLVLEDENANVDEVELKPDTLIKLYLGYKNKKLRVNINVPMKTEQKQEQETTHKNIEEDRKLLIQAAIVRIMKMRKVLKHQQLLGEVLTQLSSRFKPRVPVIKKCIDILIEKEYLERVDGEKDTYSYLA
T3 sequence (P62877 whole entry, chain 2 of 3, the tested form may be a part): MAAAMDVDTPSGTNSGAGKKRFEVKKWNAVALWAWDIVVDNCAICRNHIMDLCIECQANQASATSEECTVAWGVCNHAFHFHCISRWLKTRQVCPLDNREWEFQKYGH
T3 sequence (Q15843 1-76, chain 3 of 3): as the sequence (Q15843 1-76, chain 2 of 2) above

Binder	binding result [1]	binding result [2]	fold higher EC50 than N8C_Fab1b [3] [fold]	binding result [4]
N8C_Fab3b, biotinylated (Fab, V domains shown, as the heavy chain of m5; as the light chain of m5; GS linker between the heavy chain and the AviTag-His6 tag; Held on streptavidin beads in the IPs; source: E. coli Rosetta (DE3), purified, biotinylated in vitro with BirA; not shown: AviTag, C-terminal, kept) VH: EVQLVESGGGLVQPGGSLRLSCAASGFNFSSSSIHWVRQAPGKGLEWVASISSSYGYTYYADSVKGRFTISADTSKNTAYLQMNSLRAEDTAVYYCARDPFGWAAHGVGLDYWGQGTLVTVSS VL: DIQMTQSPSSLSASVGDRVTITCRASQSVSSAVAWYQQKPGKAPKLLIYSASSLYSGVPSRFSGSRSGTDFTLTISSLQPEDFATYYCQQSSYSLITFGQGTKVEIK	binds	binds		
N8C_Fab4a (Fab, V domains shown) VH: EVQLVESGGGLVQPGGSLRLSCAASGFNLSYYSMHWVRQAPGKGLEWVASISPYYSYTYYADSVKGRFTISADTSKNTAYLQMNSLRAEDTAVYYCARSHWASYYAGAFDYWGQGTLVTVSS VL: DIQMTQSPSSLSASVGDRVTITCRASQSVSSAVAWYQQKPGKAPKLLIYSASSLYSGVPSRFSGSRSGTDFTLTISSLQPEDFATYYCQQGYAFWHPITFGQGTKVEIK			~3	
N8C_Fab4a, biotinylated (Fab, V domains shown, as the heavy chain of m6; as the light chain of m6; GS linker between the heavy chain and the AviTag-His6 tag; source: E. coli Rosetta (DE3), purified, biotinylated in vitro with BirA; not shown: AviTag, C-terminal, kept) VH: EVQLVESGGGLVQPGGSLRLSCAASGFNLSYYSMHWVRQAPGKGLEWVASISPYYSYTYYADSVKGRFTISADTSKNTAYLQMNSLRAEDTAVYYCARSHWASYYAGAFDYWGQGTLVTVSS VL: DIQMTQSPSSLSASVGDRVTITCRASQSVSSAVAWYQQKPGKAPKLLIYSASSLYSGVPSRFSGSRSGTDFTLTISSLQPEDFATYYCQQGYAFWHPITFGQGTKVEIK	binds			binds
